Assay results: patent publication US20070134724

What was measured:
[1] = biological target: tau, shortest isoform (tau352)
Sequence of tau, shortest isoform (tau352) (chain, as listed by the source): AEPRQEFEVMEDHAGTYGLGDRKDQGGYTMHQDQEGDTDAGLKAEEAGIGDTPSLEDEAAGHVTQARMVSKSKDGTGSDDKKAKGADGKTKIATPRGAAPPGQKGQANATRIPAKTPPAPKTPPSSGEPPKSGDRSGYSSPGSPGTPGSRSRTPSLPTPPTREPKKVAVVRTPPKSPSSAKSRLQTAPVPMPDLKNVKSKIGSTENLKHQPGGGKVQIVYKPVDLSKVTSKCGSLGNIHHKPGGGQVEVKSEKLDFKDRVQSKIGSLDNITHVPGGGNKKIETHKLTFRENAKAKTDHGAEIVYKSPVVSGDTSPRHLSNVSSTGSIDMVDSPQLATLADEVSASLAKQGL

B1: abl2 tyrosine kinase (protein)
chain: GQQVGRVGEAPGLQQPQPRGIRGSSAARPSGRRRDPAGRTTETGFNIFTQHDHFASCVEDGFEGDKTGGSSPEALHRPYGCDVEPQALNEAIRWSSKENLLGATESDPNLFVALYDFVASGDNTLSITKGEKLRVLGYNQNGEWSEVRSKNGQGWVPSNYITPVNSLEKHSWYHGPVSRSAAEYLLSSLINGSFLVRESESSPGQLSISLRYEGRVYHYRINTTADGKVYVTAESRFSTLAELVHHHSTVADGLVTTLHYPAPKCNKPTVYGVSPIHDKWEMERTDITMKHKLGGGQYGEVYVGVWKKYSLTVAVKTLKEDTMEVEEFLKEAAVMKEIKHPNLVQLLGVCTLEPPFYIVTEYMPYGNLLDYLRECNREEVTAVVLLYMATQISSAMEYLEKKNFIHRDLAARNCLVGENHVVKVADFGLSRLMTGDTYTAHAGAKFPIKWTAPESLAYNTFSIKSDVWAFGVLLWEIATYGMSPYPGIDLSQVYDLLEKGYRMEQPEGCPPKVYELMRACWKWSPADRPSFAETHQAFETMFHDSSISEEVAEELGRAASSSSVVPYLPRLPILPSKTRTLKKQVENKENIEGAQDATENSASSLAPGFIRGAQASSGSPALPRKQRDKSPSSLLEDAKETCFTRDRKGGFFSSFMKKRNAPTPPKRSSSFREMENQPHKKYELTGNFSSVASLQHADGFSFTPAQQEANLVPPKCYGGSFAQRNLCNDDGGGGGGSGTAGGGWSGITGFFTPRLIKKTLGLRAGKPTASDDTSKPFPRSNSTSSMSSGLPEQDRMAMTLPRNCQRSKLQLERTVSTSSQPEENVDRANDMLPKKSEESAAPSRERPKAKLLPRGATALPLRTPSGDLAITEKDPPGVGVAGVAAAPKGKEKNGGARLGMAGVPEDGEQPGWPSPAKAAPVLPTTHNHKVPVLISPTLKHTPADVQLIGTDSQGNKFKLLSEHQVTSSGDKDRPRRVKPKCAPPPPPVMRLLQHPSICSDPTEEPTALTAGQSTSETQEGGKKAALGAVPISGKAGRPVMPPPQVPLPTSSISPAKMANGTAGTKVALRKTKQAAEKISADKISKEALLECADLLSSALTEPVPNSQLVDTGHQLLDYCSGYVDCIPQTRNKFAFREAVSKLELSLQELQVSSAAAGVPGTNPVLNNLLSCVQEISDVVQR
tau
  phosphorylation of Y-to-F tau mutants co-transfected with abl2 (western blot with anti-pY): Abl2 strongly phosphorylates Y394, with lower levels of phosphorylation at Y197 and Y310
  phosphorylation of tau at Y310 (western blot with YP21): demonstrating phosphorylation of tau at Y310
  phosphorylation of the long (4R) isoform co-transfected with abl2 (western blot, sandwich ELISA): Y394 was the predominant site of abl2 phosphorylation
  tyrosine phosphorylation of tau with and without Gleevec (western blot, ELISA): Abl1 or abl2 transfected into the cell is what directly phosphorylates tau
[1]
  phosphorylation of the short (3R) isoform co-transfected with abl2 (western blot, sandwich ELISA): Y394 was the predominant site of abl2 phosphorylation

B2: Gleevec-resistant abl2 (T3611 form) (protein)
chain: GQQVGRVGEAPGLQQPQPRGIRGSSAARPSGRRRDPAGRTTETGFNIFTQHDHFASCVEDGFEGDKTGGSSPEALHRPYGCDVEPQALNEAIRWSSKENLLGATESDPNLFVALYDFVASGDNTLSITKGEKLRVLGYNQNGEWSEVRSKNGQGWVPSNYITPVNSLEKHSWYHGPVSRSAAEYLLSSLINGSFLVRESESSPGQLSISLRYEGRVYHYRINTTADGKVYVTAESRFSTLAELVHHHSTVADGLVTTLHYPAPKCNKPTVYGVSPIHDKWEMERTDITMKHKLGGGQYGEVYVGVWKKYSLTVAVKTLKEDTMEVEEFLKEAAVMKEIKHPNLVQLLGVCTLEPPFYIVIEYMPYGNLLDYLRECNREEVTAVVLLYMATQISSAMEYLEKKNFIHRDLAARNCLVGENHVVKVADFGLSRLMTGDTYTAHAGAKFPIKWTAPESLAYNTFSIKSDVWAFGVLLWEIATYGMSPYPGIDLSQVYDLLEKGYRMEQPEGCPPKVYELMRACWKWSPADRPSFAETHQAFETMFHDSSISEEVAEELGRAASSSSVVPYLPRLPILPSKTRTLKKQVENKENIEGAQDATENSASSLAPGFIRGAQASSGSPALPRKQRDKSPSSLLEDAKETCFTRDRKGGFFSSFMKKRNAPTPPKRSSSFREMENQPHKKYELTGNFSSVASLQHADGFSFTPAQQEANLVPPKCYGGSFAQRNLCNDDGGGGGGSGTAGGGWSGITGFFTPRLIKKTLGLRAGKPTASDDTSKPFPRSNSTSSMSSGLPEQDRMAMTLPRNCQRSKLQLERTVSTSSQPEENVDRANDMLPKKSEESAAPSRERPKAKLLPRGATALPLRTPSGDLAITEKDPPGVGVAGVAAAPKGKEKNGGARLGMAGVPEDGEQPGWPSPAKAAPVLPTTHNHKVPVLISPTLKHTPADVQLIGTDSQGNKFKLLSEHQVTSSGDKDRPRRVKPKCAPPPPPVMRLLQHPSICSDPTEEPTALTAGQSTSETQEGGKKAALGAVPISGKAGRPVMPPPQVPLPTSSISPAKMANGTAGTKVALRKTKQAAEKISADKISKEALLECADLLSSALTEPVPNSQLVDTGHQLLDYCSGYVDCIPQTRNKFAFREAVSKLELSLQELQVSSAAAGVPGTNPVLNNLLSCVQEISDVVQR
tau
  tyrosine phosphorylation of tau in the presence of Gleevec (western blot, ELISA): In the presence of Gleevec, both forms could phosphorylate tau
